Data taken from publication PMC7000732, “Bridging non-overlapping reads illuminates high-order epistasis between distal protein sites in a GPCR” (Nature Communications, 2020).
Values joined by “and” are separate entries in the source; they are usually repeats but may differ in a detail not shown here. Identical values can stand only once.

How the values were obtained:
[1] = test system: A2aR W246Y; conditions: cited from earlier work
[2] = design: method as in doi:10.1016/0584-8539(95)01421-P; conditions: cited from earlier work
[3] = target: A2aR suspended in bovine striatal membranes; design: method as in earlier work; conditions: literature value; cited from earlier work
[4] = Whole-cell saturation radioligand binding; design: species or system Saccharomyces cerevisiae; conditions: for CPM: raw replicate counts, empty vector not subtracted
[5] = Fluorescent ligand binding measured by flow cytometry; design: species or system Saccharomyces cerevisiae; conditions: for fluorescent ligand binding signal: Supplementary Figure 4 source data, replicates, listed as pYC A2a10H (Q89A)
[6] = FACS-based screen of A2aR library with deep sequencing (BRIDGE): variant enrichment; type: cell-based, Saccharomyces cerevisiae

CCNC(=O)[C@H]1O[C@@H](n2cnc3c(N)nc(NCCc4ccc(CCC(=O)O)cc4)nc32)[C@H](O)[C@@H]1O [CGS21680]
potency of the agonist [1]: comparable to that of the wild-type receptor

O=C1OC2(c3ccc(O)cc3Oc3cc(O)ccc32)c2ccccc21 [Fluorescein]
pKa of the dianion [2]: 6.43

CCNC(=O)[C@H]1O[C@@H](n2cnc3c(N)nc(NCCc4ccc(CCC(=O)NCCNC(=S)Nc5ccc6c(c5)C(=O)OC65c6ccc(O)cc6Oc6cc(O)ccc65)cc4)nc32)[C@H](O)[C@@H]1O [FITC-APEC]
Kd [3]: 57 nM

B1: TAWLH: single-residue mutant Q89A of A2aR, positive control reported to exhibit improved binding affinity to NECA (protein, UniProt P29274 1-412, looked up, variant Q89A)
Adenosine receptor A2a: MPIMGSSVYITVELAIAVLAILGNVLVCWAVWLNSNLQNVTNYFVVSLAAADIAVGVLAIPFAITISTGFCAACHGCLFIACFVLVLTASSIFSLLAIAIDRYIAIRIPLRYNGLVTGTRAKGIIAICWVLSFAIGLTPMLGWNNCGQPKEGKNHSQGCGEGQVACLFEDVVPMNYMVYFNFFACVLVPLLLMLGVYLRIFLAARRQLKQMESQPLPGERARSTLQKEVHAAKSLAIIVGLFALCWLPLHIINCFTFFCPDCSHAPLWLMYLAIVLSHTNSVVNPFIYAYRIREFRQTFRKIIRSHVLRQQEPFKAAGTSARVLAAHGSDGEQVSLRLNGHPPGVWANGSAPHPERRPNGYALGLVSGGSAQESQGNTGLPDVELLSHELKGVCPEPPGLDDPLAQDGAGVS
modifications: decahistidine tag
Kd ([4]; 3H-NECA, whole yeast cells, pH 5.8, mean ± SD of three biological replicates, read-out: equilibrium dissociation constant (Kd)): 9.9 ± 0.4 nM
CPM ([4]; [3H-NECA] 1.6 nM): 224 CPM and 211 CPM and 240 CPM
CPM ([4]; [3H-NECA] 3.1 nM): 450 CPM and 470 CPM and 429 CPM
CPM ([4]; [3H-NECA] 6.3 nM): 719 CPM and 702 CPM and 640 CPM
CPM ([4]; [3H-NECA] 12.5 nM): 1084 CPM and 978 CPM and 892 CPM
CPM ([4]; [3H-NECA] 25 nM): 1238 CPM and 1266 CPM and 1270 CPM
CPM ([4]; [3H-NECA] 50 nM): 1460 CPM and 1383 CPM and 1357 CPM
CPM ([4]; [3H-NECA] 100 nM): 1834 CPM and 1782 CPM and 1547 CPM
CPM ([4]; [3H-NECA] 200 nM): 2245 CPM and 2197 CPM and 2158 CPM
CPM ([4]; [3H-NECA] 400 nM): 2884 CPM and 2262 CPM and 2852 CPM
fold greater 3H-NECA binding affinity than wild-type receptor ([4]; ratio of Kd to wild-type): fourfold
fluorescent ligand binding, result in words ([5]; FITC-APEC, yeast cells): improved binding affinity
fluorescent ligand binding signal ([5]; [FITC-APEC] 10 nM): 102 and 104 and 101
fluorescent ligand binding signal ([5]; [FITC-APEC] 100 nM): 132 and 133 and 147
fluorescent ligand binding signal ([5]; [FITC-APEC] 1000 nM): 298 and 308 and 303
fluorescent ligand binding signal ([5]; [FITC-APEC] 10000 nM): 368 and 357 and 377
fluorescent ligand binding signal ([5]; [FITC-APEC] 50000 nM): 430 and 460 and 408
Enrichment rate ([6]; naive to PS4 library (PS4/naive), high-stringency gating, 10 µM FITC-APEC): 149
Fold increase in enrichment rate over WT ([6]; naive to PS4 library, WT rate 0.30): 497 fold
Enrichment rate ([6]; naive to PS4 population): 149 fold
